Each substance was assayed against His6-MBP-PadeB1 (assay: fluorescence polarisation).

**Q.** For “Fl-PadeA (PadeA labelled with fluorescein-5-maleimide) (peptide)”, which Kd is on record?
**A.** The Kd was 0.069 µM.

**Q.** PadeA(−19 to −7) peptide was tested. Which Ki did it give?
**A.** The Ki was 0.119 µM.

Molecular target: His6-MBP-PadeB1
Experiment: fluorescence polarisation
Remark: another data set of the same source

**Q.** PadeA precursor peptide, wild type (WT) was tested. Which Ki did it give?
**A.** Its Ki is 0.137 µM.

**Q.** With PadeA variant A1G (peptide) as the substance, how does the Ki read?
**A.** Its Ki is 0.127 µM.

**Q.** For PadeA variant P–12A (peptide), which Ki is on record?
**A.** The Ki was 0.476 µM.

**Q.** Which Ki does the source give for PadeA variant P–12A/Y–15A (peptide) here?
**A.** The Ki was 1.34 µM.

**Q.** For PadeA variant T–2A (peptide), which Ki is on record?
**A.** The Ki was 0.152 µM.

**Q.** For PadeA variant Y–15A (peptide), which Ki is on record?
**A.** Its Ki is 1.18 µM.

**Q.** With PadeA(−19 to −7) peptide as the substance, how does the Ki read?
**A.** The Ki was 0.12 µM.

Reference: paper PMC6092944
